Experimental data from PMC8604303, “Polymerization of C9 enhances bacterial cell envelope damage and killing by membrane attack complex pores” (PLoS Pathogens, 2021).

Biological target: the molecule itself
Assay: cell-based or functional assay

B1: wildtype C9 (C9wt) (natural protein)
chain: not shown
modifications: Cy5 at the C-terminus in the binding assays (GGGK-azide sortagged onto LPETGG, then DBCO-Cy5 by copper-free click chemistry)
  bacterial viability (CFU) of C5b-8 labelled E. coli MG1655 with 100 nM C9, decrease: ≥ 1000 fold
